Reference: patent publication US11629364B2, “Methods for synthesizing anticoagulant polysaccharides” (OPTIMVIA, LLC, priority 2019, dated 2023)

Assays:
[1] = NST activity: N-sulfated products detected by SAX-HPLC after lyase digestion; format: biochemical; conditions: for NST activity: N-sulfated products by SAX: procedures of Example 2, expected
Experimental: A study was conducted in accordance with embodiments of the present disclosure to confirm NST activity of enzymes comprising the amino acid sequence of SEQ ID NO: 2, SEQ ID NO: 4, SEQ ID NO: 6, SEQ ID NO: 8, SEQ ID NO: 10, or SEQ ID NO: 12 by detecting the presence of N-sulfated polysaccharide products formed as a result of their sulfotransfer reaction, using mass spectrometry (MS). Each engineered enzyme was purified according to the procedure of Example 1. Sulfotransferase activity was monitored in 100 μL reactions containing 50 μM of enzyme. To each purified protein solution, 20 mg of an aryl sulfate compound (either PNS or NCS) was dissolved in 2 mL of reaction buffer (50 mM IVIES pH 7.0, 2 mM CaCl2)), added to the protein solution, and incubated at 37° C. for 10 min. 2.5 mL of 2 mg/mL solution of N-deacetylated heparosan was added to protein/donor solution and incubated overnight at 37° C. The N-deacetylated heparosan was synthesized according to the protocol described in Balagurunathan, K. et al (eds.) (2015), Glycosaminoglycans: Chemistry and Biology, Methods in Molecular Biology, vol. 1229, DOI 10.1007/978-1-4939-1714-3_2, ©Springer Science+Business Media, New York, pp. 11-19 (section 3.1). To purify the N-sulfated product, the incubated reaction mixture was centrifuged the following day at 5,000×g for 10 min. The filter was washed once with 2 mL water, and centrifuged again. The filtrate was added to a 1K MWCO Dialysis membrane, dialyzed for 2 days in Milli-Q water, with water changes at 1 h, 2 h, 8 h, 16 h, 32 h, and then lyophilized.
The lyophilized N-sulfated products from each reaction were subsequently digested with a mixture of three carbon-oxygen lyases comprising the amino acid sequences of SEQ ID NO: 30, SEQ ID NO: 31, and SEQ ID NO: 32, which catalyze the β-eliminative cleavage of heparosan-based polysaccharides. Such lyases are available from New England Biolabs, among other chemical and biological commercial entities. 1 μL of each lyase was incubated with 50 μg of the lyophilized sulfated polysaccharide product and the provided digestion buffer, and incubated over 24 hours according to the packaged instructions provided by New England Biolabs with each lyase. After digestion, the lyase enzymes were inactivated by heating to 100° C. for 5 minutes. Samples were centrifuged at 14,000 rpm for 30 minutes before introduction to a strong anion exchange, high performance liquid chromatography (SAX) analysis. SAX analysis was performed on a Dionex Ultimate 3000 LC system interface. Separation was carried out on a 4.6×250 mm Waters Spherisorb analytical column with 5.0 μm particle size at 45° C. Mobile phase solution A was 2.5 mM sodium phosphate, pH 3.5, while mobile phase solution B was 2.5 mM sodium phosphate, pH 3.5, and 1.2 M Sodium perchlorate. After each sample was loaded onto the column, mobile phase solutions were applied to the column at a ratio of 98% mobile phase solution A and 2% mobile phase solution B for five minutes at a flow rate of 1.4 mL/min. After five minutes, a linear gradient of increasing mobile phase solution B was applied until the ratio of mobile phase solution A to mobile phase solution B was 50:50.

[2] = 3OST activity: 3-O sulfated products detected by LCMS after lyase digestion; format: biochemical
Experimental: A study was conducted in accordance with embodiments of the present disclosure to confirm 3OST activity of enzymes comprising the amino acid sequence of SEQ ID NO: 24, SEQ ID NO: 26, or SEQ ID NO: 28 by detecting the presence of 3-O sulfated polysaccharide products as a result of their sulfotransfer reaction, using a reaction, using a similar LCMS procedure as in Example 3, except that the sulfo acceptor polysaccharide was commercially-available heparin (CAS code: 9041-08-1, available from Millipore Sigma). Even though the unmodified heparin contains ˜3.5% (w/w) of 3-O sulfated glucosamine residues, about ˜60% of the glucosamine residues are N,6-sulfated and are adjacent to a 2-O sulfated hexuronic acid residue, as in Formula X. Consequently, these N,6-sulfated glucosamine residues can still be 3-O sulfated.

Row | Molecule | NST activity: N-sulfated products by SAX [1] | other results
1 | SEQ ID NO: 35: mutant of N-sulfotransferase domain of pig NDST carrying the SEQ ID NO: 2 mutations (protein, Amino acid sequence encoding for engineered arylsulfate-dependent N-sulfotransferase variant 9) MSEEKDPLWQDPCEDKRHKDIWSKEKTCDRFPKLLIIGPQKTGAWALYHFLGLHPDLSSNYPSSETHGSIQFFNGHNYHKGIDWYMDFFPIPSNTTSDFYFEKSANYFDSDVAPRRAAALLPKAKVLTILINPADRAYSWYQHQRAHDDPAALRYTFHEVITAGPDASLKLRALQNRCLVPGWYATHLERWLGAFHANQILVLDGKLLRTEPARVMDTVQKFLGVTNTIDYHKTLAFDPKKGFWCQLLEGGKTKCLGRSHGRKYPDMDPDSRAFLRDYYRDHNIELSKLLYKMGQTLPTWLREELQNTR | confirm the presence of N-sulfated polysaccharide products | –
2 | SEQ ID NO: 40: mutant of N-sulfotransferase domain of pig NDST carrying the SEQ ID NO: 12 mutations (protein, Amino acid sequence encoding for engineered arylsulfate-dependent N-sulfotransferase variant 14) MSEEKDPLWQDPCEDKRHKDIWSKEKTCDRFPKLLIIGPAKTGAWLLHHFLGLHPDLSSNYPSSETHSSIQFFNGHNYHKGIDWYMDFFPIPSNTTSDFYFETSANYFDSDVAPRRAAALLPKAKVLTILINPADRAYSWYQHQRAHDDPAALRYTFHEVITAGPDASLKLRALQNRCLVPGWYATHLERWLGAFHANQILVLDGKLLRTEPARVMDTVQKFLGVTNTIDYHKTLAFDPKKGFWCQLLEGGKTKCAHRGLGRKYPDMDPDSRAFLRDYYRDHNIELSKLLYKMGQTLPTWLREELQNTR | confirm the presence of N-sulfated polysaccharide products | –
3 | SEQ ID NO: 39: mutant of N-sulfotransferase domain of pig NDST carrying the SEQ ID NO: 10 mutations (protein, Amino acid sequence encoding for engineered arylsulfate-dependent N-sulfotransferase variant 13) MSEEKDPLWQDPCEDKRHKDIWSKEKTCDRFPKLLIIGPHKTGVHALYLFLGLHPDLSSNYPSSETGNHIGFFGGHNYHKGIDWYMDFFPIPSNTTSDFYFEKSAWYFDSDVAPRRAAALLPKAKVLTILINPADRAYSWYQHQRAHDDPAALRYTFHEVITAGPDASLKLRALQNRCLVPGWYATHLERWLGAFHANQILVLDGKLLRTEPARVMDTVQKFLGVTNTIDYHKTLAFDPKKGFWCQLLEGGKTKCLGRSVGRKYPDMDPDSRAFLRDYYRDHNIELSKLLYKMGQTLPTWLREELQNTR | confirm the presence of N-sulfated polysaccharide products | –
4 | SEQ ID NO: 8: engineered aryl sulfate-dependent NST enzyme, mutant of N-sulfotransferase domain of human NDST (protein, Amino acid sequence encoding for engineered arylsulfate-dependent N-sulfotransferase variant 4, engineered aryl sulfate-dependent NST enzyme, mutant of N-sulfotransferase domain of human NDST) MSEEKDPLWQDPCEDKRHKDIWSKEKTCDRFPKLLIIGPHGTGGHALYLFLGMHPDLSSNYPSSETFLSIQFFNGHNYHKGIDWYMEFFPIPSNTTSDFYFEHSGNYFDSEVAPRRAAALLPKAKVLTILINPADRAYRAYVWQRAHDDPVALKYTFHEVITAGSDASSKLRALQNRCLVPGWYATHIERWLSAYHANQILVLDGKLLRTEPAKVMDMVQKFLGVTNTIDYHKTLAFDPKKGFWCQLLEGGKTKCLGKSLGSKYPEMDLDSRAFLKDYYRDHNIELSKLLYKMGQTLPTWLREDLQNTR | – | NST sulfotransferase activity with aryl sulfate compounds ([1]; PNS or NCS as sulfo donor, N-deacetylated heparosan acceptor, 37° C. overnight): activity with both aryl sulfate compounds
5 | SEQ ID NO: 28: engineered aryl sulfate-dependent 3OST enzyme, mutant of isoform 1 of the human 3OST enzyme (protein, Amino acid sequence encoding for engineered arylsulfate-dependent 3-O-sulfotransferase variant 3, engineered aryl sulfate-dependent 3OST enzyme, mutant of isoform 1 of the human 3OST enzyme) MGTASNGSTQQLPQTIIIGVGHGGTRALLEMLSLHPDVAAAENEVHFFDWEEHYSQGLGWYLTQMPFSSPHQLTVEKTHSYFTSPKVPERIHSMNPTIRLLLILRDPSERVLSLGTHLLYVHLQKHKPYPPIEDLLMRDGRLNLDYTGLNRSLYHAHMLNWLRFFPLGHIHIVDGDRLIRDPFPEIQKVERFLKLSPQINASNFYFNKTKGFYCLRDSGKDRCLHESKGRAHPQVDPKLLDKLHEYFHEPNKKFFKLVGRTFDWH | – | 3OST activity with PNS ([2]; PNS as aryl sulfate compound): not active; abundance of 3-O sulfation in product ([2]; relative to the commercial heparin standard): higher abundance of 3-O sulfation
6 | SEQ ID NO: 36: mutant of N-sulfotransferase domain of pig NDST carrying the SEQ ID NO: 4 mutations (protein, Amino acid sequence encoding for engineered arylsulfate-dependent N-sulfotransferase variant 10) MSEEKDPLWQDPCEDKRHKDIWSKEKTCDRFPKLLIIGPSKTGAFLLTHFLGLHPDLSSNYPSSETGHSIQFFNGHNYHKGIDWYMDFFPIPSNTTSDFYFETSSNYFDSDVAPRRAAALLPKAKVLTILINPADRAYSWYQHQRAHDDPAALRYTFHEVITAGPDASLKLRALQNRCLVPGWYATHLERWLGAFHANQILVLDGKLLRTEPARVMDTVQKFLGVTNTIDYHKTLAFDPKKGFWCQLLEGGKTKCHGRRWGRKYPDMDPDSRAFLRDYYRDHNIELSKLLYKMGQTLPTWLREELQNTR | confirm the presence of N-sulfated polysaccharide products | –
7 | SEQ ID NO: 37: mutant of N-sulfotransferase domain of pig NDST carrying the SEQ ID NO: 6 mutations (protein, Amino acid sequence encoding for engineered arylsulfate-dependent N-sulfotransferase variant 11) MSEEKDPLWQDPCEDKRHKDIWSKEKTCDRFPKLLIIGPHHTGGHALYLFLGLHPDLSSNYPSSETGEEIQFFNGHNYHKGIDWYMDFFPIPSNTTSDFYFEKSANYFDSDVAPRRAAALLPKAKVLTILINPADRAYSWYQAQRAHDDPAALRYTFHEVITAGPDASLKLRALQNRCLVPGWYATHLERWLGAFHANQILVLDGKLLRTEPARVMDTVQKFLGVTNTIDYHKTLAFDPKKGFWCQLLEGGKTKCGGRHLGRKYPDMDPDSRAFLRDYYRDHNIELSKLLYKMGQTLPTWLREELQNTR | confirm the presence of N-sulfated polysaccharide products | –
8 | SEQ ID NO: 38: mutant of N-sulfotransferase domain of pig NDST carrying the SEQ ID NO: 8 mutations (protein, Amino acid sequence encoding for engineered arylsulfate-dependent N-sulfotransferase variant 12) MSEEKDPLWQDPCEDKRHKDIWSKEKTCDRFPKLLIIGPHGTGGHALYLFLGLHPDLSSNYPSSETFLSIQFFNGHNYHKGIDWYMDFFPIPSNTTSDFYFEHSGNYFDSDVAPRRAAALLPKAKVLTILINPADRAYRAYVWQRAHDDPAALRYTFHEVITAGPDASLKLRALQNRCLVPGWYATHLERWLGAFHANQILVLDGKLLRTEPARVMDTVQKFLGVTNTIDYHKTLAFDPKKGFWCQLLEGGKTKCLGRSLGSKYPDMDPDSRAFLRDYYRDHNIELSKLLYKMGQTLPTWLREELQNTR | confirm the presence of N-sulfated polysaccharide products | –
